Test [1] has as its target T1, V3 peptide NY/5 (HIV-1 group M subtype B, isolate NY5, strain).
T1 chain: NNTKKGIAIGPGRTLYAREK
Briefly: ELISA. Background: An ELISA detects its analyte on a solid surface through an enzyme-linked reagent.

Test [2] has as its target T2, V3 peptide of HIV-1 clade B strain MN (HIV-1 clade B, isolate MN).
T2 chain: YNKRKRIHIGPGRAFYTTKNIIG
Briefly: crystal structure.

B1: human monoclonal antibody 447-52D (IgG3, lambda) (antibody, V domains shown)
VH: EVQLVESGGGLVKPGGSLRLTCVASGFTFSDVWLNWVRQAPGKGLEWVGRIKSRTDGGTTDYAASVKGRFTISRDDSKNTLYLQMNSLKTEDTAVYSCTTDGFIMIRGVSEDYYYYYMDVWGKGTTVTVSS
VL: QSVLTQPPSVSAAPGQKVTISCSGSSSNIGNNYVLWYQQFPGTAPKLLIYGNNKRPSGIPDRFSGSKSGTSATLGITGLQTGDEADYFCATWDSGLSADWVFGGGTKLTVL
With B1, in test [1], the binding result was “binds”.

B2: Fab fragment of human monoclonal antibody 537-10D (Fab, V domains shown)
VH: QVQLVQSGGGLVQPGGSLRLSCVASGFTFNNYWMSWVRQAPGKGLEWVANIKQDGNDKYYVDSVKGRFTISRDNAKNSLFLQMNSLRAEDTAVYFCAREFSSYTDHLEYYYDYYYMDVWGKGTTVTVSS
VL: QSALTQPASVSGSPGQSITISCTGTSTDVNGYNYVSWYQQYAGKAPKLIIFDVSKRPSGVSNRFSGSKSGDTASLTISGLQAEDEADYHCSSYTSSTPYVLFGGGTKLTVL
In the case of B2, in test [2], the binding result was “binds”.

The values are drawn from publication PMC3683248 (Structure (London, England : 1993), 2009).
